Laboratory results published in paper PMC5887438 (Nucleic Acids Research, 2018).

Biological target: C. crescentus σ70 domain 2 (σ70_2, residues 128-487) (Caulobacter crescentus, UniProt P52324 127-486)
Test: crystal structure

Chain of C. crescentus σ70 domain 2 (σ70_2, residues 128-487) (P52324 127-486): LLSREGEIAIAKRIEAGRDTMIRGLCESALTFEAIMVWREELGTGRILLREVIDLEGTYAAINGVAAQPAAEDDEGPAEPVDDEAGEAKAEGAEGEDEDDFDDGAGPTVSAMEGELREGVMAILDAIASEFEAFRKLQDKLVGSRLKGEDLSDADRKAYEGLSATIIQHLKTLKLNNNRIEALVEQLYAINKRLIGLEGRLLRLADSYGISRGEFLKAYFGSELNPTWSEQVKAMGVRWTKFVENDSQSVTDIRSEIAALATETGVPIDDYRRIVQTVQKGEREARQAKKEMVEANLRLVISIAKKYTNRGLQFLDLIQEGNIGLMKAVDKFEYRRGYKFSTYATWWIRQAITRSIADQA

B1: C. crescentus GcrA-SID (residues 88-173) (domain or fragment, Caulobacter crescentus, UniProt A0A0H3C9J4 88-173, looked up)
chain: VPVAAAPAPLPAFRHEEPGSATVLTLGAHMCKWPIGDPSSEGFTFCGRRSSEGPYCVEHARVAYQPQQTKKKSGGAELARSLRRYI
For B1, the “stoichiometry N” value was 1.
